“Also recorded” adds a separate entry of the source.
Experiments:
DRB1*1101 (DR11) = DRB1*1101 (DR11) (Homo sapiens, UniProt P01903+P01911, A100R/A169T/A87E/I96F/K41T/L162R/M171V/P40S/Q125H/Q178H/Q39Y/Q99D/R42S/S66Y/T262R/V115G/W38E); format: binding
DRB1*0301 (DR3) = DRB1*0301 (DR3) (Homo sapiens, UniProt P01903+P01911, A100K/A102G/A103R/A169T/F55Y/I96L/K41T/L162R/M171V/P40S/Q125H/Q178H/Q39Y/R42S/S66N/T106N/T262R/W38E/Y61H); format: binding
DRB1*0401 (DR4) = DRB1*0401 (DR4) (Homo sapiens, UniProt P01903+P01911, A100K/A169T/F76Y/I96L/K127E/L162R/M171V/N62H/P40V/Q125Y/R42H/S133A/S149N/S66Y/V115G/V209L/W38E); format: binding
DRB1*1301 (DR13) = DRB1*1301 (DR13) (Homo sapiens, UniProt P01903+P01911, A100E/A169T/K41T/L162R/M171V/P40S/Q125H/Q178H/Q39Y/Q99D/R42S/S66N/T262R/W38E/Y61H); format: binding
DRB1*0701 (DR7) = DRB1*0701 (DR7) (Homo sapiens, UniProt P01903+P01911, A100R/A102G/A103Q/D57E/D86V/E43K/F76Y/K127E/L162R/M171V/P40G/Q125H/Q99D/R33Q/R42Y/R54Q/S133A/S66F/T210M/V115G/Y107V/Y59L/Y89S); format: binding
DRB1*1501 (DR15) = DRB1*1501 (DR15) (Homo sapiens, UniProt P01903+P01911); format: binding
[1] = system: CD4^+ T cells of HLA class II transgenic mice; format: cell-based
HLA-DR molecules = format: binding, human
DRB1*0101 (DR1) = DRB1*0101 (DR1) (Homo sapiens, UniProt P01903+P01911, A100R/D57E/F55L/F60I/F76Y/I96L/L162R/M171V/P40L/Q125E/R42F/V115G/Y59C); format: binding

Row | Sequence | Relative binding affinity of peptide to HLA-DR molecules, DR11 (DRB1*1101 (DR11)) | Relative binding affinity of peptide to HLA-DR molecules, DR3 (DRB1*0301 (DR3)) | Relative binding affinity of peptide to HLA-DR molecules, DR4 (DRB1*0401 (DR4)) | Relative binding affinity of peptide to HLA-DR molecules, DR13 (DRB1*1301 (DR13)) | Relative binding affinity of peptide to HLA-DR molecules, DR7 (DRB1*0701 (DR7)) | Relative binding affinity of peptide to HLA-DR molecules, DR15 (DRB1*1501 (DR15)) | CD4 T cell response in LF immunized HLA transgenics [1] | HLA-restriction based on CD4 T cell response class II HLA transgenics after priming with LF [1] | Binding across all HLA-DR alleles assayed (HLA-DR molecules) | Relative binding affinity of peptide to HLA-DR molecules, DR1 (DRB1*0101 (DR1)) | Strong relative binding affinity of peptide to HLA-DR molecules, DR3 (DRB1*0301 (DR3)) | Strong relative binding affinity of peptide to HLA-DR molecules, DR13 (DRB1*1301 (DR13)) | Strong relative binding affinity of peptide to HLA-DR molecules, DR7 (DRB1*0701 (DR7)) | Strong relative binding affinity of peptide to HLA-DR molecules, DR15 (DRB1*1501 (DR15)) | Strong relative binding affinity of peptide to HLA-DR molecules, DR11 (DRB1*1101 (DR11)) | Strong relative binding affinity of peptide to HLA-DR molecules, DR4 (DRB1*0401 (DR4)) | Binding to HLA-DR1, DR4 and DR15 (HLA-DR molecules) | Strong relative binding affinity of peptide to HLA-DR molecules, DR1 (DRB1*0101 (DR1))
1 | EAQLNINQEWNKALGLPKYT | 100 | 173 | 43 | 17 | 68 | 1 | DQB1*0302 restricted | DR15, DQ8 | strong to moderate binding across all seven HLA-DR alleles | 104 | – | – | – | – | – | – | – | –
2 | EQYTHQDEIYEQVHSKGLYV | 35 | 245 | 237 | 15 | 0 | 13 | immunodominant epitope in both HLA-DR1 and HLA-DR15 transgenics | DRI | strong to moderate binding across all seven HLA-DR alleles | 1 | – | – | – | – | – | – | – | –
3 | EYIRIDAKVVPKSKIDTKIQ | 21 | 1 | 15 | 24 | 12 | 156 | elicited a T cell response in a single HLA transgenic strain | DRI | strong to moderate binding across all seven HLA-DR alleles | 3 | – | – | – | – | – | – | – | –
4 | HQSIGSTLYNKIYLYENMNI | 44 | 1 | 55 | 5 | 3 | 0.02 | recognised by all LF immunized HLA transgenics; also recorded: immunogenic in all three HLA-DR transgenic strains | DR1, DR4, DR15,; also recorded: DQ8, DQ6 | strong to moderate binding across all seven HLA-DR alleles | 115 | + (key: +: Strong binding affinity was defined in this study as a relative activity <10) | + (key: +: Strong binding affinity was defined in this study as a relative activity <10) | + (key: +: Strong binding affinity was defined in this study as a relative activity <10) | + (key: +: Strong binding affinity was defined in this study as a relative activity <10) | – | – | – | –
5 | LENGKLILQRNIGLEIKDVQI | 3 | 4 | 7 | 9 | 1 | 0.04 | identified in HLA-DR1, HLA-DR4 and HLA-DR15 transgenic lines; also recorded: immunogenic in all three HLA-DR transgenic strains | DR1, DR4, DR15 | – | 0 | + (key: +: Strong binding affinity was defined in this study as a relative activity <10) | + (key: +: Strong binding affinity was defined in this study as a relative activity <10) | + (key: +: Strong binding affinity was defined in this study as a relative activity <10) | + (key: +: Strong binding affinity was defined in this study as a relative activity <10) | + (key: +: Strong binding affinity was defined in this study as a relative activity <10) | + (key: +: Strong binding affinity was defined in this study as a relative activity <10) | strong binders to all three HLA-DR alleles | + (key: +: Strong binding affinity was defined in this study as a relative activity <10)
6 | NKALGLPKYTKLITFNVHNR | 2 | 250 | 10 | 19 | 4 | 3 | – | DR1 | strong to moderate binding across all seven HLA-DR alleles | 0 | – | – | – | – | – | – | – | –
7 | PESRSILLHGPSKGVELRND | 120 | 354 | 22 | 21 | 51 | 17 | elicited a T cell response in a single HLA transgenic strain; also recorded: immunodominant epitopes in HLA-DR15 transgenics | DR15 | strong to moderate binding across all seven HLA-DR alleles | 7 | – | – | – | – | – | – | – | –
8 | QHRDVLQLYAPEAFNYMDKF | 5 | 3 | 100 | 267 | 83 | 0.3 | – | DR1, DQ8 | strong to moderate binding across all seven HLA-DR alleles | 146 | – | – | – | – | – | – | – | –
9 | QNSNEVQEVFAKAFAYYIEP | 2 | 173 | 137 | 327 | 0.4 | 1 | – | DR1 | strong to moderate binding across all seven HLA-DR alleles | 0.1 | – | – | – | – | – | – | – | –
10 | QSDLIKKVTNYLVDGNGRFV | 139 | 26 | 15 | 38 | 4 | 0.2 | – | DR15 | strong to moderate binding across all seven HLA-DR alleles | 12 | – | – | – | – | – | – | – | –
11 | SDVLEMYKAIGGKIYIVDGD | 4 | >76 | 305 | 123 | 1 | 2 | HLA-DQ8 specific response | DQ8 | strong to moderate binding across all seven HLA-DR alleles | 5 | – | – | – | – | – | – | – | –
12 | VENTEKALNVYYEIGKILSR | 0.03 | 418 | 81 | 71 | 36 | 0.2 | – | DR1 | strong to moderate binding across all seven HLA-DR alleles | 1 | – | – | – | – | – | – | – | –

Source: patent publication US20170058005A1 (priority 2014, published 2017)
